Assay results published in patent US20190352623A1.

Biological target: HaloTag-NLpep86 fusion proteins (internal fusions)
Test: luminescence complementation in transfected HeLa cells

efficiency of structural complementation relative to N- or C-terminal NLpep86 fusions to HaloTag: 1 to 40%
Substance: NLpoly11S
